Consider 7 molecules from patent publication US20220153790A1 (TECHNISCHE UNIVERSIT T M NCHEN, published 2022).

For orientation: Kd means the free concentration of one partner at which half of the binding sites on the other are occupied at equilibrium, for simple one-to-one binding. A high value points to weaker binding.

The target in this test is T1, fully glycosylated, monobiotinylated extracellular domain of human CD98hc produced in HEK 293E cells (human, UniProt P08195 111-529, N-linked glycosylation at Asn264, 280, 323 and 405 (UniProt P08195-2); single biotin on the N-terminal BAP).
T1 construct: also called hCD98hcEDg; CD98hcEDg; not shown: N-terminal His6 tag and biotin acceptor peptide (BAP) from pDSG-BM-His6-BAP-hCD98hcEDg
T1 sequence: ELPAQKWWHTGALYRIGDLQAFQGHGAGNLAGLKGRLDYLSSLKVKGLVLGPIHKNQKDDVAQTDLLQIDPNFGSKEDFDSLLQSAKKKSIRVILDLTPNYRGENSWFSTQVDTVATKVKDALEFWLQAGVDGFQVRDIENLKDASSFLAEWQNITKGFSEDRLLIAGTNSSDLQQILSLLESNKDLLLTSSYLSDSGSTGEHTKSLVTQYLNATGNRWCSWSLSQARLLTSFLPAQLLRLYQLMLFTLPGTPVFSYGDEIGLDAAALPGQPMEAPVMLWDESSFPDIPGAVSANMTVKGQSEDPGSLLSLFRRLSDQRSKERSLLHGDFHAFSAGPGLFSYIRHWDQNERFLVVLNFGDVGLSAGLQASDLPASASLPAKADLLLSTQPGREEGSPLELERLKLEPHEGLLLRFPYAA
Assay: not given

B1: SEQ ID NO 5 (designed binder)
chain: QDSTSDLIPAPPLSKVPLQQNFQDNQFHGKWYVVGRAGNTGLREDKDPGKMFATIYELKEDKSYNVTYVWFGQKKCMYSIVTFVPGSQPGEFTLGNIKSAPGRTSWLVRVVSTNYNQYAMVFFKSVTQNREGFAITLYGRTKELTSELKENFIRFSKSLGLPENHIVFPVPIDQCIDG
Take B1: the Kd was not above 200 nM.

B2: SEQ ID NO 10 (designed binder)
chain: QDSTSDLIPAPPLSKVPLQQNFQDNQFHGKWYVVGRAGNTGLREDKDPGKMFATIYELKEDKSYNVTYVWSGQKKCMYSIVSFVPGSQPGEYNLGNIKSAPGRTSWLVRVVSTNYNQHAMVFFKSVTQNREGFAITLYGRTKELTSELKENFIRFSKSLGLPENHIVFPVPIDQCIDG
Consider B2, for which the Kd was not above 200 nM.

B3: SEQ ID NO 8 (designed binder)
chain: QDSTSDLIPAPPLSKVPLQQNFQDNQFHGKWYVVGRAGNTGLREDKDPGKMFATIYELKEDKSYNVTYVWFGQKKCMYSIVTFVPGSQPGEFTLGNIKSAPGRTSWLVRVVSTNYNQYAMVFFKSETQNREGFAITLYGRTKELTSELKEYFIRFSKSLGLPENHIVFPVPIDQCIDG
For B3, the Kd is not above 200 nM.

B4: SEQ ID NO 11 (designed binder)
chain: QDSTSDLIPAPPLSKVPLQQNFQDNQFHGKWYVVGRAGNTGLREDKDPGKMFATIYELKEDKSYNVTYVWSGQTKCMYSIVTFVPGSQPGEFTLGNIKSAPGRTSWLVRVVSTNYNQHAMVFFKSVTQNREGFAITLYGRTKELTSELKENFIRFSKSLGLPENHIVFPVPIDQCIDG
B4 had an equilibrium dissociation constant (Kd) not above 200 nM.

B5: SEQ ID NO 9 (designed binder)
chain: QDSTSDLIPAPPLSKVPLQQNFQDNQFHGKWYVVGRAGNTGLREDKDPGKMFATIYELKEDKSYNVTYVWFGQKKCMYSIVTFVPGSQPGEFTLGNIKSAPGRTSWLVRVVSTNYNQHAMVFFKSVTQNREEFAITLYGRTKELTSELKENFIRFSKSLGLPENHIVFPVPIDQCIDG
Take B5: the dissociation constant (Kd) is not above 200 nM.

B6: SEQ ID NO 7 (designed binder)
chain: QDSTSDLIPAPPLSKVPLQQNFQDNQFHGKWYVVGRAGNTGLREDKDPGKMFATIYELKEDKSYNVTYVWFGQKKCMNSIVTFVPGSQPGEFTLGNIKSAPGRTSWLVRVVSTNYNQYAMVFFKSVTQNREGFAITLYGRTKELTSELKENFIRFSKSLGLPENHIVFPVPIDQCIDG
The molecule B6 showed a Kd not above 200 nM.

B7: SEQ ID NO 6 (designed binder)
chain: QDSTSDLIPAPPLSKVPLQQNFQDNQFHGKWYVVGRAGNTGLREDKDPGKMFATIYELKEDKSFNVTYVWFGQKKCMYSIVTFVPGSQPGEFTLGNIKSAPGRTSWLVRVVSTNYNQHAMVFFKSVTQNREGFAITLYGRTKELTSELKENFIRFSKSLGLPENHIVFPVPIDQCIDG
With B7, the Kd is not above 200 nM.
